Results on 4 molecules are retold here after PMC3762362, “Three-color single molecule imaging shows WASP detachment from Arp2/3 complex triggers actin filament branch formation” (eLife, 2013).

The chains are these.
B1: Cy3-diVCA wild-type (N-WASP VCA covalently dimerized with a Cy3 bis-maleimide) (domain or fragment)
chain: CGGSGGSGGSGGSSGRDALLDQIRQGIQLKSVADGQESTPPTPAPTSGIVGALMEVMQKRSKAIHSSDEDEDEDDEEDFEDDDEWED
modifications: Cy3 bis-maleimide (BMCy3) crosslinks the single Cys of the N-terminal extension of the two chains
notes: extension appended at the N-terminus; its Cys reacts with the Cy3 bis-maleimide; human N-WASP VCA, residues 432-505 (second WH2 motif (V) through the C-terminus); Covalent dimer; also called diVCA w.t; wild-type diVCA; source: E. coli BL21(DE3) T1R, purified (DEAE, Glutathione Sepharose, TEV cleavage, SOURCE 15Q, Superdex 200); not shown: GST, N-terminal, cleaved
B2: Cy3-diVCA-C* (I467A) (domain or fragment)
chain: CGGSGGSGGSGGSSGRDALLDQIRQGIQLKSVADGQESTPPTPAPTSGAVGALMEVMQKRSKAIHSSDEDEDEDDEEDFEDDDEWED
modifications: Cy3 bis-maleimide (BMCy3) crosslinks the single Cys of the N-terminal extension of the two chains
notes: extension appended at the N-terminus; its Cys reacts with the Cy3 bis-maleimide; human N-WASP VCA, residues 432-505, mutated in the C-region; Covalent dimer; same design as m1; also called C* mutant; source: E. coli BL21(DE3) T1R, purified (DEAE, Glutathione Sepharose, TEV cleavage, SOURCE 15Q, Superdex 200); not shown: GST, N-terminal, cleaved
B3: Cy3-diVCA-V* (D435S/A436D) (domain or fragment)
chain: CGGSGGSGGSGGSSGRSDLLDQIRQGIQLKSVADGQESTPPTPAPTSGIVGALMEVMQKRSKAIHSSDEDEDEDDEEDFEDDDEWED
modifications: Cy3 bis-maleimide (BMCy3) crosslinks the single Cys of the N-terminal extension of the two chains
notes: extension appended at the N-terminus; its Cys reacts with the Cy3 bis-maleimide; human N-WASP VCA, residues 432-505, mutated in the V-region; Covalent dimer; same design as m1; also called V* mutant; source: E. coli BL21(DE3) T1R, purified (DEAE, Glutathione Sepharose, TEV cleavage, SOURCE 15Q, Superdex 200); not shown: GST, N-terminal, cleaved
B4: Cy3-diVCA-A* (Δ486–488) (domain or fragment)
chain: CGGSGGSGGSGGSSGRDALLDQIRQGIQLKSVADGQESTPPTPAPTSGIVGALMEVMQKRSKAIHSSEDEDDEEDFEDDDEWED
modifications: Cy3 bis-maleimide (BMCy3) crosslinks the single Cys of the N-terminal extension of the two chains
notes: extension appended at the N-terminus; its Cys reacts with the Cy3 bis-maleimide; human N-WASP VCA, residues 432-505, three-residue deletion in the A-region; Covalent dimer; same design as m1; also called A* mutant; source: E. coli BL21(DE3) T1R, purified (DEAE, Glutathione Sepharose, TEV cleavage, SOURCE 15Q, Superdex 200); not shown: GST, N-terminal, cleaved

For the test, the target named is Rabbit muscle actin (monomeric) (rabbit, UniProt P68135 1-377). Description: fluorescence polarisation; fluorescence anisotropy competition: 20 nM VCA-AF488 with rabbit muscle actin (150 nM in the legend, 200 nM in the methods) and increasing Cy3-diVCA construct; fit to a competition binding isotherm; 10 mM imidazole pH 7.0, 50 mM KCl, 1 mM EGTA, 1 mM MgCl2, 0.5 mM DTT, 0.1 mM ATP; room temperature. The following applies: both partners purified.
With B1, the Kd is 340 nM.

The molecule B2 returned a Kd of 260 nM.

Regarding B3, the Kd was 660 nM. This Kd lies about 2.5-fold higher than the previous one.

B4 displayed a Kd of 250 nM.
